Tests used:
Experiment in all cases: co-IP; anti-GFP immunoprecipitation (µMACS anti-GFP Microbeads) from lysates of macrophages expressing GFP-fused constructs (500 mM NaCl, 2% Triton X-100, 50 mM Tris-HCl pH 8.0), washes with RIPA and high-salt RIPA; GFP alone as control; western blot of endogenous partners, densitometry
[1] = target: supervillin construct SV1-830-GFP (UniProt O46385)
[2] = target: GFP-fused full length LSP1 (human) (UniProt P33241)
[3] = target: T1, supervillin construct SV1-830-GFP (UniProt O46385-2 1-830); conditions: partners not purified
T1 construct: supervillin, N-terminal region, residues 1-830; as far as recalled the Luna laboratory constructs are bovine supervillin; also called GFP-SV1-830; GFP-supervillin 1-830; source: primary human macrophages, transfected, in lysate

With “Ser19 phosphorylated myosin light chain (pMLC), endogenous (from UniProt P24844 1-172) (natural protein)” the coprecipitated amount relative to LSP1-GFP [1] was 9 fold.

“α-cardiac actin, endogenous (from UniProt P68032 1-377) (natural protein)” showed a coprecipitated α-cardiac actin relative to SV1-830-GFP [2] of 0.33 fold.

B1: myosin IIA, endogenous (natural protein, UniProt P35579 1-1960, looked up)
chain: MAQQAADKYLYVDKNFINNPLAQADWAAKKLVWVPSDKSGFEPASLKEEVGEEAIVELVENGKKVKVNKDDIQKMNPPKFSKVEDMAELTCLNEASVLHNLKERYYSGLIYTYSGLFCVVINPYKNLPIYSEEIVEMYKGKKRHEMPPHIYAITDTAYRSMMQDREDQSILCTGESGAGKTENTKKVIQYLAYVASSHKSKKDQGELERQLLQANPILEAFGNAKTVKNDNSSRFGKFIRINFDVNGYIVGANIETYLLEKSRAIRQAKEERTFHIFYYLLSGAGEHLKTDLLLEPYNKYRFLSNGHVTIPGQQDKDMFQETMEAMRIMGIPEEEQMGLLRVISGVLQLGNIVFKKERNTDQASMPDNTAAQKVSHLLGINVTDFTRGILTPRIKVGRDYVQKAQTKEQADFAIEALAKATYERMFRWLVLRINKALDKTKRQGASFIGILDIAGFEIFDLNSFEQLCINYTNEKLQQLFNHTMFILEQEEYQREGIEWNFIDFGLDLQPCIDLIEKPAGPPGILALLDEECWFPKATDKSFVEKVMQEQGTHPKFQKPKQLKDKADFCIIHYAGKVDYKADEWLMKNMDPLNDNIATLLHQSSDKFVSELWKDVDRIIGLDQVAGMSETALPGAFKTRKGMFRTVGQLYKEQLAKLMATLRNTNPNFVRCIIPNHEKKAGKLDPHLVLDQLRCNGVLEGIRICRQGFPNRVVFQEFRQRYEILTPNSIPKGFMDGKQACVLMIKALELDSNLYRIGQSKVFFRAGVLAHLEEERDLKITDVIIGFQACCRGYLARKAFAKRQQQLTAMKVLQRNCAAYLKLRNWQWWRLFTKVKPLLQVSRQEEEMMAKEEELVKVREKQLAAENRLTEMETLQSQLMAEKLQLQEQLQAETELCAEAEELRARLTAKKQELEEICHDLEARVEEEEERCQHLQAEKKKMQQNIQELEEQLEEEESARQKLQLEKVTTEAKLKKLEEEQIILEDQNCKLAKEKKLLEDRIAEFTTNLTEEEEKSKSLAKLKNKHEAMITDLEERLRREEKQRQELEKTRRKLEGDSTDLSDQIAELQAQIAELKMQLAKKEEELQAALARVEEEAAQKNMALKKIRELESQISELQEDLESERASRNKAEKQKRDLGEELEALKTELEDTLDSTAAQQELRSKREQEVNILKKTLEEEAKTHEAQIQEMRQKHSQAVEELAEQLEQTKRVKANLEKAKQTLENERGELANEVKVLLQGKGDSEHKRKKVEAQLQELQVKFNEGERVRTELADKVTKLQVELDNVTGLLSQSDSKSSKLTKDFSALESQLQDTQELLQEENRQKLSLSTKLKQVEDEKNSFREQLEEEEEAKHNLEKQIATLHAQVADMKKKMEDSVGCLETAEEVKRKLQKDLEGLSQRHEEKVAAYDKLEKTKTRLQQELDDLLVDLDHQRQSACNLEKKQKKFDQLLAEEKTISAKYAEERDRAEAEAREKETKALSLARALEEAMEQKAELERLNKQFRTEMEDLMSSKDDVGKSVHELEKSKRALEQQVEEMKTQLEELEDELQATEDAKLRLEVNLQAMKAQFERDLQGRDEQSEEKKKQLVRQVREMEAELEDERKQRSMAVAARKKLEMDLKDLEAHIDSANKNRDEAIKQLRKLQAQMKDCMRELDDTRASREEILAQAKENEKKLKSMEAEMIQLQEELAAAERAKRQAQQERDELADEIANSSGKGALALEEKRRLEARIAQLEEELEEEQGNTELINDRLKKANLQIDQINTDLNLERSHAQKNENARQQLERQNKELKVKLQEMEGTVKSKYKASITALEAKIAQLEEQLDNETKERQAACKQVRRTEKKLKDVLLQVDDERRNAEQYKDQADKASTRLKQLKRQLEEAEEEAQRANASRRKLQRELEDATETADAMNREVSSLKNKLRRGDLPFVVPRRMARKGAGDGSDEEVDGKADGAEAKPAE
notes: non-muscle myosin IIA heavy chain, human, precipitated and detected with anti-myosin IIA antibodies; also called non-muscle myosin IIA; source: endogenous, primary human macrophages (lysate or fixed cells)
B1 was tested, and the “coprecipitated amount relative to LSP1-GFP” value [3] was 1.6 fold.
